The target of experiment [1] is IMPDH1(595)-S477D (human). The experiment can be described thus: cryo-EM structure.
For experiment [2], the target named is IMPDH1(595)-S477D (human). As to the kind of experiment: negative stain EM.

Usually stoichiometry N stands for a count of units in the complex or per binding partner.

Take IMPDH1(595)-S477D (enzyme): the stoichiometry N in experiment [1] and in experiment [2] was 8 throughout.

These data come from article PMC10849882.
